Data reported in patent US20140087995A1 (published 2014).
Numbered stars: 1 amine (or outer) side, 2 acyl side, 3 side chain; on linkers, the order of the positions; unused ones are H or OH. Bridge positions count the residues as written; N and C are the ends. Side chains are listed from the residue outwards. Ends that are not written are not given here. * marks the point of attachment. C20 diacid = O=C(O)CCCCCCCCCCCCCCCCCCC(=O)*; γGlu = O=C(O)[C@H](CCC(=O)[*:2])N[*:1]

T1: human calcitonin receptor (human, UniProt P30988 25-474)
T1 sequence (looked up): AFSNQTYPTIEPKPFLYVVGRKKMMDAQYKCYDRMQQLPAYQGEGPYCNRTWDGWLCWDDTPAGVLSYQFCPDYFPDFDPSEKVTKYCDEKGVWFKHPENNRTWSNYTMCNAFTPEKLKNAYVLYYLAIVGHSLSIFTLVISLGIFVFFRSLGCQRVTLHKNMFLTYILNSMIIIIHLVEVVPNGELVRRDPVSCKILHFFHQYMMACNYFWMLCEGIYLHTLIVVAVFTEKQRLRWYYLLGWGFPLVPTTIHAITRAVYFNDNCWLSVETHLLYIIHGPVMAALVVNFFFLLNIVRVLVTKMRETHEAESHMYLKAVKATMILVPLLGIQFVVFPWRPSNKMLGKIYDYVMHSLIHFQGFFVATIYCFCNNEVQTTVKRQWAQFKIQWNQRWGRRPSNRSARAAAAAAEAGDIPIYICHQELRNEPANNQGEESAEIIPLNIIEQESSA

B1: N^ε1-[(4S)-4-carboxy-4-(19-carboxynonadecanoylamino)butanoyl]-[Ala14,Arg17,Pro21,Pro27,His34]-h-amylin (peptide)
peptide: K([γGlu-C20 diacid])CNTATCATQRLAAFLRHSSPNFGAIPSSTNVGHNTY-NH2
modifications: disulfide 2-7; N-terminus assumed
SMILES: CC[C@H](C)[C@H](NC(=O)[C@H](C)NC(=O)CNC(=O)[C@H](Cc1ccccc1)NC(=O)[C@H](CC(N)=O)NC(=O)[C@@H]1CCCN1C(=O)[C@H](CO)NC(=O)[C@H](CO)NC(=O)[C@H](Cc1c[nH]cn1)NC(=O)[C@H](CCCNC(=N)N)NC(=O)[C@H](CC(C)C)NC(=O)[C@H](Cc1ccccc1)NC(=O)[C@H](C)NC(=O)[C@H](C)NC(=O)[C@H](CC(C)C)NC(=O)[C@H](CCCNC(=N)N)NC(=O)[C@H](CCC(N)=O)NC(=O)[C@@H](NC(=O)[C@H](C)NC(=O)[C@@H]1CSSC[C@H](NC(=O)[C@@H](N)CCCCNC(=O)CC[C@H](NC(=O)CCCCCCCCCCCCCCCCCCC(=O)O)C(=O)O)C(=O)N[C@@H](CC(N)=O)C(=O)N[C@@H]([C@@H](C)O)C(=O)N[C@@H](C)C(=O)N[C@@H]([C@@H](C)O)C(=O)N1)[C@@H](C)O)C(=O)N1CCC[C@H]1C(=O)N[C@@H](CO)C(=O)N[C@@H](CO)C(=O)N[C@H](C(=O)N[C@@H](CC(N)=O)C(=O)N[C@H](C(=O)NCC(=O)N[C@@H](Cc1c[nH]cn1)C(=O)N[C@@H](CC(N)=O)C(=O)N[C@H](C(=O)N[C@@H](Cc1ccc(O)cc1)C(N)=O)[C@@H](C)O)C(C)C)[C@@H](C)O
notes: also called compound 93
B2: N^ε1-[(4S)-4-carboxy-4-(19-carboxynonadecanoylamino)butanoyl]-[Arg17,Pro21,Pro27,Arg34]-h-amylin (peptide)
peptide: K([γGlu-C20 diacid])CNTATCATQRLANFLRHSSPNFGAIPSSTNVGRNTY-NH2
modifications: disulfide 2-7; N-terminus assumed
SMILES: CC[C@H](C)[C@H](NC(=O)[C@H](C)NC(=O)CNC(=O)[C@H](Cc1ccccc1)NC(=O)[C@H](CC(N)=O)NC(=O)[C@@H]1CCCN1C(=O)[C@H](CO)NC(=O)[C@H](CO)NC(=O)[C@H](Cc1c[nH]cn1)NC(=O)[C@H](CCCNC(=N)N)NC(=O)[C@H](CC(C)C)NC(=O)[C@H](Cc1ccccc1)NC(=O)[C@H](CC(N)=O)NC(=O)[C@H](C)NC(=O)[C@H](CC(C)C)NC(=O)[C@H](CCCNC(=N)N)NC(=O)[C@H](CCC(N)=O)NC(=O)[C@@H](NC(=O)[C@H](C)NC(=O)[C@@H]1CSSC[C@H](NC(=O)[C@@H](N)CCCCNC(=O)CC[C@H](NC(=O)CCCCCCCCCCCCCCCCCCC(=O)O)C(=O)O)C(=O)N[C@@H](CC(N)=O)C(=O)N[C@@H]([C@@H](C)O)C(=O)N[C@@H](C)C(=O)N[C@@H]([C@@H](C)O)C(=O)N1)[C@@H](C)O)C(=O)N1CCC[C@H]1C(=O)N[C@@H](CO)C(=O)N[C@@H](CO)C(=O)N[C@H](C(=O)N[C@@H](CC(N)=O)C(=O)N[C@H](C(=O)NCC(=O)N[C@@H](CCCNC(=N)N)C(=O)N[C@@H](CC(N)=O)C(=O)N[C@H](C(=O)N[C@@H](Cc1ccc(O)cc1)C(N)=O)[C@@H](C)O)C(C)C)[C@@H](C)O
notes: also called compound 79
B3: N^ε1-[(4S)-4-carboxy-4-(19-carboxynonadecanoylamino)butanoyl]-[Arg14,Arg17,Pro21,Pro27,Pro31]-h-amylin (peptide)
peptide: K([γGlu-C20 diacid])CNTATCATQRLARFLRHSSPNFGAIPSSTPVGSNTY-NH2
modifications: disulfide 2-7; N-terminus assumed
SMILES: CC[C@H](C)[C@H](NC(=O)[C@H](C)NC(=O)CNC(=O)[C@H](Cc1ccccc1)NC(=O)[C@H](CC(N)=O)NC(=O)[C@@H]1CCCN1C(=O)[C@H](CO)NC(=O)[C@H](CO)NC(=O)[C@H](Cc1c[nH]cn1)NC(=O)[C@H](CCCNC(=N)N)NC(=O)[C@H](CC(C)C)NC(=O)[C@H](Cc1ccccc1)NC(=O)[C@H](CCCNC(=N)N)NC(=O)[C@H](C)NC(=O)[C@H](CC(C)C)NC(=O)[C@H](CCCNC(=N)N)NC(=O)[C@H](CCC(N)=O)NC(=O)[C@@H](NC(=O)[C@H](C)NC(=O)[C@@H]1CSSC[C@H](NC(=O)[C@@H](N)CCCCNC(=O)CC[C@H](NC(=O)CCCCCCCCCCCCCCCCCCC(=O)O)C(=O)O)C(=O)N[C@@H](CC(N)=O)C(=O)N[C@@H]([C@@H](C)O)C(=O)N[C@@H](C)C(=O)N[C@@H]([C@@H](C)O)C(=O)N1)[C@@H](C)O)C(=O)N1CCC[C@H]1C(=O)N[C@@H](CO)C(=O)N[C@@H](CO)C(=O)N[C@H](C(=O)N1CCC[C@H]1C(=O)N[C@H](C(=O)NCC(=O)N[C@@H](CO)C(=O)N[C@@H](CC(N)=O)C(=O)N[C@H](C(=O)N[C@@H](Cc1ccc(O)cc1)C(N)=O)[C@@H](C)O)C(C)C)[C@@H](C)O
notes: also called compound 63
B4: N^ε1-[(4S)-4-carboxy-4-(19-carboxynonadecanoylamino)butanoyl]-[Arg14,Arg17,Pro21,Pro27]-h-amylin (peptide)
peptide: K([γGlu-C20 diacid])CNTATCATQRLARFLRHSSPNFGAIPSSTNVGSNTY-NH2
modifications: disulfide 2-7; N-terminus assumed
SMILES: CC[C@H](C)[C@H](NC(=O)[C@H](C)NC(=O)CNC(=O)[C@H](Cc1ccccc1)NC(=O)[C@H](CC(N)=O)NC(=O)[C@@H]1CCCN1C(=O)[C@H](CO)NC(=O)[C@H](CO)NC(=O)[C@H](Cc1c[nH]cn1)NC(=O)[C@H](CCCNC(=N)N)NC(=O)[C@H](CC(C)C)NC(=O)[C@H](Cc1ccccc1)NC(=O)[C@H](CCCNC(=N)N)NC(=O)[C@H](C)NC(=O)[C@H](CC(C)C)NC(=O)[C@H](CCCNC(=N)N)NC(=O)[C@H](CCC(N)=O)NC(=O)[C@@H](NC(=O)[C@H](C)NC(=O)[C@@H]1CSSC[C@H](NC(=O)[C@@H](N)CCCCNC(=O)CC[C@H](NC(=O)CCCCCCCCCCCCCCCCCCC(=O)O)C(=O)O)C(=O)N[C@@H](CC(N)=O)C(=O)N[C@@H]([C@@H](C)O)C(=O)N[C@@H](C)C(=O)N[C@@H]([C@@H](C)O)C(=O)N1)[C@@H](C)O)C(=O)N1CCC[C@H]1C(=O)N[C@@H](CO)C(=O)N[C@@H](CO)C(=O)N[C@H](C(=O)N[C@@H](CC(N)=O)C(=O)N[C@H](C(=O)NCC(=O)N[C@@H](CO)C(=O)N[C@@H](CC(N)=O)C(=O)N[C@H](C(=O)N[C@@H](Cc1ccc(O)cc1)C(N)=O)[C@@H](C)O)C(C)C)[C@@H](C)O
notes: also called compound 83
B5: N^ε1-[(4S)-4-carboxy-4-(19-carboxynonadecanoylamino)butanoyl]-[Arg17,Pro21,Pro27,His34]-h-amylin (peptide)
peptide: K([γGlu-C20 diacid])CNTATCATQRLANFLRHSSPNFGAIPSSTNVGHNTY-NH2
modifications: disulfide 2-7; N-terminus assumed
SMILES: CC[C@H](C)[C@H](NC(=O)[C@H](C)NC(=O)CNC(=O)[C@H](Cc1ccccc1)NC(=O)[C@H](CC(N)=O)NC(=O)[C@@H]1CCCN1C(=O)[C@H](CO)NC(=O)[C@H](CO)NC(=O)[C@H](Cc1c[nH]cn1)NC(=O)[C@H](CCCNC(=N)N)NC(=O)[C@H](CC(C)C)NC(=O)[C@H](Cc1ccccc1)NC(=O)[C@H](CC(N)=O)NC(=O)[C@H](C)NC(=O)[C@H](CC(C)C)NC(=O)[C@H](CCCNC(=N)N)NC(=O)[C@H](CCC(N)=O)NC(=O)[C@@H](NC(=O)[C@H](C)NC(=O)[C@@H]1CSSC[C@H](NC(=O)[C@@H](N)CCCCNC(=O)CC[C@H](NC(=O)CCCCCCCCCCCCCCCCCCC(=O)O)C(=O)O)C(=O)N[C@@H](CC(N)=O)C(=O)N[C@@H]([C@@H](C)O)C(=O)N[C@@H](C)C(=O)N[C@@H]([C@@H](C)O)C(=O)N1)[C@@H](C)O)C(=O)N1CCC[C@H]1C(=O)N[C@@H](CO)C(=O)N[C@@H](CO)C(=O)N[C@H](C(=O)N[C@@H](CC(N)=O)C(=O)N[C@H](C(=O)NCC(=O)N[C@@H](Cc1c[nH]cn1)C(=O)N[C@@H](CC(N)=O)C(=O)N[C@H](C(=O)N[C@@H](Cc1ccc(O)cc1)C(N)=O)[C@@H](C)O)C(C)C)[C@@H](C)O
notes: also called compound 77
B6: N^ε1-[(4S)-4-carboxy-4-(19-carboxynonadecanoylamino)butanoyl]-[Arg14,Arg17,Pro21,Pro27,Pro34]-h-amylin (peptide)
peptide: K([γGlu-C20 diacid])CNTATCATQRLARFLRHSSPNFGAIPSSTNVGPNTY-NH2
modifications: disulfide 2-7; N-terminus assumed
SMILES: CC[C@H](C)[C@H](NC(=O)[C@H](C)NC(=O)CNC(=O)[C@H](Cc1ccccc1)NC(=O)[C@H](CC(N)=O)NC(=O)[C@@H]1CCCN1C(=O)[C@H](CO)NC(=O)[C@H](CO)NC(=O)[C@H](Cc1c[nH]cn1)NC(=O)[C@H](CCCNC(=N)N)NC(=O)[C@H](CC(C)C)NC(=O)[C@H](Cc1ccccc1)NC(=O)[C@H](CCCNC(=N)N)NC(=O)[C@H](C)NC(=O)[C@H](CC(C)C)NC(=O)[C@H](CCCNC(=N)N)NC(=O)[C@H](CCC(N)=O)NC(=O)[C@@H](NC(=O)[C@H](C)NC(=O)[C@@H]1CSSC[C@H](NC(=O)[C@@H](N)CCCCNC(=O)CC[C@H](NC(=O)CCCCCCCCCCCCCCCCCCC(=O)O)C(=O)O)C(=O)N[C@@H](CC(N)=O)C(=O)N[C@@H]([C@@H](C)O)C(=O)N[C@@H](C)C(=O)N[C@@H]([C@@H](C)O)C(=O)N1)[C@@H](C)O)C(=O)N1CCC[C@H]1C(=O)N[C@@H](CO)C(=O)N[C@@H](CO)C(=O)N[C@H](C(=O)N[C@@H](CC(N)=O)C(=O)N[C@H](C(=O)NCC(=O)N1CCC[C@H]1C(=O)N[C@@H](CC(N)=O)C(=O)N[C@H](C(=O)N[C@@H](Cc1ccc(O)cc1)C(N)=O)[C@@H](C)O)C(C)C)[C@@H](C)O
notes: also called compound 65

Biological target: T1, human calcitonin receptor
Experiment: cell-based or functional assay

hCTR funct. EC50 [nM] | Binder
1.15 | B1
3.94 | B2
5.13 | B3
16.8 | B4
5.4 | B5
9.33 | B6
